Data from US7101851 (dated 2006).
Bridges are numbered along the chain shown (N, C = ends). Where no end group is shown, it is not given here. [ ]: non-standard residue; d: D form. Ava = NCCCCC(=O)O

What was measured:
[1] = molecular target: T1, alpha subunit of the human FcεRI receptor expressed on Chinese hamster ovary cells (human, UniProt P12319 26-257); assay: inhibition of 125I-IgE binding to CHO cells expressing human FcεRI alpha subunit
T1 construct: whole, on cells; also called CHO FcεRI+ cells
T1 sequence (looked up): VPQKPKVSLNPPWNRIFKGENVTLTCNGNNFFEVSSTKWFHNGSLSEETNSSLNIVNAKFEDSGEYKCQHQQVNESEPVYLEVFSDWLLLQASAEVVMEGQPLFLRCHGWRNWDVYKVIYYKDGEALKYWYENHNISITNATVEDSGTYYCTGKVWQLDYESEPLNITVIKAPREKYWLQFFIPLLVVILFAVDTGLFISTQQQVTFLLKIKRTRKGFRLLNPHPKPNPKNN
Experimental: To determine the ability of peptides to inhibit IgE binding to FcεRI, a cell-based binding assay was used with radiolabeled IgE. Chinese hamster ovary cells expressing the alpha subunit of the human FcεRI receptor were cultured overnight in Falcon 96 well microtiter plates at a concentration of 5 ×10^4 cells per well. The following day the cells were rinsed three times with PBS and then once with F12/DMEM. Peptide stocks were reconstituted in 100 mM Hepes buffered water, pH 7.2, at a concentration of 5 mg/mL. Working concentrations of the peptide were diluted in assay buffer (see below). 75 uL of a desired concentration of peptide was added to the top row of a separate 96 well microtiter plate and serially diluted 1:3 in 50 uL of the assay buffer (F12/DMEM, 1% BSA, 0.05% NaN_3 and 0.025 mM Hepes pH 7.2). Starting concentrations ranged from 50–500 uM. Next, 50 uL of the diluted peptide was transferred to the 96 microtiter well plate containing a monolayer of CHO FcεRI+ cells. […] Cells were […]

[2] = molecular target: T2, alpha subunit of the human FcεRI receptor (IgE high affinity receptor), expressed on Chinese hamster ovary … (human, UniProt P12319 26-257); assay: inhibition of 125I-IgE binding to CHO cells expressing human FcεRI alpha; competitor IgE
T2 construct: whole, on cells; also called CHO FcεRI+ cells; FcεRIα
T2 sequence (looked up): T1 sequence (looked up)
In short: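 CHO cells expressing human FcεRI alpha were plated at 5 × 10^4 cells per well overnight, then given peptides serially diluted 1:3 from 50–500 uM starting concentrations in F12/DMEM with 1% BSA, 0.05% NaN3 and Hepes pH 7.2. Inhibition of 125I-IgE binding was measured.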

B1: IGE046 (peptide)
peptide: Ac-CTEGPWGWFCI-NH2
modifications: disulfide 1-10 (inferred)
notes: synthetic
Question: For B1, which IC50 [1] is on record?
Answer: 549 µM

B2: IGE044 (peptide)
peptide: Ac-CLEGPWGWFCI-NH2
modifications: disulfide 1-10 (inferred)
notes: synthetic
Question: For B2, which IC50 [1] is on record?
Answer: 194 µM

B3: IGE045 (peptide)
peptide: CLEGPWGWFCI-NH2
modifications: disulfide 1-10 (inferred)
notes: synthetic
Question: For B3, which IC50 [1] is on record?
Answer: 300 µM

B4: IGE080 (peptide)
peptide: Ac-CLEGPWGWVCI-NH2
modifications: disulfide 1-10 (inferred)
notes: synthetic
Question: Which IC50 [1] does the source give for B4 here?
Answer: 410 µM

B5: IGE047 (peptide)
peptide: CTEGPWGWFCI-NH2
modifications: disulfide 1-10 (inferred)
notes: synthetic
Question: How did the IC50 [1] turn out when B5 was run?
Answer: 741 µM

B6: IGE042 (peptide)
peptide: Ac-NLPRCTEGPWGWVCMAAD-NH2
modifications: disulfide 5-14 (inferred)
notes: synthetic
Question: With B6 as the binder, how does the IC50 [1] read?
Answer: 1.5 µM

B7: IGE031 (peptide)
peptide: Ac-NLPRCTEGPWGWVCMADD-NH2
modifications: disulfide 5-14 (inferred)
notes: synthetic
Question: B7 was tested. Which IC50 [1] did it give?
Answer: 1.1 µM

B8: IGE032 (peptide)
peptide: Ac-NLPRCTEGPKGWVCMADD-NH2
modifications: disulfide 5-14 (inferred)
notes: synthetic
Question: With B8 as the binder, how does the IC50 [1] read?
Answer: 10.8 µM

B9: IGE050 (peptide)
peptide: Ac-NLPRCTEGPNGWVCMAAD-NH2
modifications: disulfide 5-14 (inferred)
notes: synthetic
Question: B9 was tested. Which IC50 [1] did it give?
Answer: 19.4 µM

B10: IGE051 (peptide)
peptide: NLPRCTEGPNGWVCMAAD-NH2
modifications: disulfide 5-14 (inferred)
notes: synthetic
Question: Which IC50 [1] does the source give for B10 here?
Answer: 23.7 µM

B11: IGE059 (peptide)
peptide: Ac-NLPRCTAGPWGWVCMAAD-NH2
modifications: disulfide 5-14 (inferred)
notes: synthetic
Question: With B11 as the binder, how does the IC50 [1] read?
Answer: 10.5 µM

B12: IGE057 (peptide)
peptide: NLPRCTEGPWGWVCM-NH2
modifications: disulfide 5-14 (inferred)
notes: synthetic
Question: How did the IC50 [1] turn out when B12 was run?
Answer: 0.8 µM

B13: IGE072 (peptide)
peptide: NLPRCTEGPAGWVCM
modifications: disulfide 5-14 (inferred)
notes: synthetic
Question: B13 was tested. Which IC50 [1] did it give?
Answer: 81.5 µM

B14: IGE073 (peptide)
peptide: NLPRCTEGPWGAVCM
modifications: disulfide 5-14 (inferred)
notes: synthetic
Question: Which IC50 [1] does the source give for B14 here?
Answer: 118 µM

B15: IGE074 (peptide)
peptide: NLPRCTEGPWAWVCM
modifications: disulfide 5-14 (inferred)
notes: synthetic
Question: B15 was tested. Which IC50 [1] did it give?
Answer: 43 µM

B16: IGE075 (peptide)
peptide: NLPRCTEGPWGWVCI
modifications: disulfide 5-14 (inferred)
notes: synthetic
Question: With B16 as the binder, how does the IC50 [1] read?
Answer: 1.4 µM

B17: IGE077 (peptide)
peptide: NLPRCTEGPWGWYCM
modifications: disulfide 5-14 (inferred)
notes: synthetic
Question: How did the IC50 [1] turn out when B17 was run?
Answer: 126 µM

B18: IGE079 (peptide)
peptide: NLPRCTEAPWGWVCM
modifications: disulfide 5-14 (inferred)
notes: synthetic
Question: Which IC50 [1] does the source give for B18 here?
Answer: 462 µM

B19: IGE106 (peptide)
peptide: Ac-NLPRCTEGPVGWVCM
modifications: disulfide 5-14 (inferred)
notes: synthetic
Question: For B19, which IC50 [1] is on record?
Answer: 84 µM

B20: IGE109 (peptide)
peptide: Ac-NLPRCTEGPWGLVCM
modifications: disulfide 5-14 (inferred)
notes: synthetic
Question: Which IC50 [1] does the source give for B20 here?
Answer: 10.6 µM

B21: IGE208 (peptide)
peptide: Ac-NLPRCAEGPWGWVCM
modifications: disulfide 5-14 (inferred)
notes: synthetic
Question: Which IC50 [1] does the source give for B21 here?
Answer: 6.85 µM

B22: IGE209 (peptide)
peptide: Ac-NLPRCTEGPWGWACM
modifications: disulfide 5-14 (inferred)
notes: synthetic
Question: Which IC50 [1] does the source give for B22 here?
Answer: 14.3 µM

B23: IGE058 (peptide)
peptide: Ac-NLPRCTEGPWGWVCM-NH2
modifications: disulfide 5-14 (inferred)
notes: synthetic
Question: Which IC50 [1] does the source give for B23 here?
Answer: 1.8 µM

B24: IGE062 (peptide)
peptide: NLPRCTEGPWGWVCM
modifications: disulfide 5-14 (inferred)
notes: synthetic
Question: Which IC50 [1] does the source give for B24 here?
Answer: 1 µM

B25: IGE063 (peptide)
peptide: Ac-NLPRCTEGPWGWVCM
modifications: disulfide 5-14 (inferred)
notes: synthetic
Question: For B25, which IC50 [1] is on record?
Answer: 1.8 µM

B26: IGE068 (peptide)
peptide: LPRCTEGPWGWVCM-NH2
modifications: disulfide 4-13 (inferred)
notes: synthetic
Question: For B26, which IC50 [1] is on record?
Answer: 3.3 µM

B27: IGE069 (peptide)
peptide: PRCTEGPWGWVCM-NH2
modifications: disulfide 3-12 (inferred)
notes: synthetic
Question: How did the IC50 [1] turn out when B27 was run?
Answer: 34 µM

B28: IGE076 (peptide)
peptide: NLPRCTEGPWGWVCMAY
modifications: disulfide 5-14 (inferred)
notes: synthetic
Question: With B28 as the binder, how does the IC50 [1] read?
Answer: 2 µM

B29: IGE185 (peptide)
peptide: VQCPHFCYAEPLCPDVCYV-NH2
modifications: disulfide 7-13, 3-17; N-terminus assumed
SMILES: CC(C)C[C@@H]1NC(=O)[C@@H]2CCCN2C(=O)[C@H](CCC(=O)O)NC(=O)[C@H](C)NC(=O)[C@H](Cc2ccc(O)cc2)NC(=O)[C@@H]2CSSC[C@H](NC1=O)C(=O)N1CCC[C@H]1C(=O)N[C@@H](CC(=O)O)C(=O)N[C@@H](C(C)C)C(=O)N[C@H](C(=O)N[C@@H](Cc1ccc(O)cc1)C(=O)N[C@H](C(N)=O)C(C)C)CSSC[C@H](NC(=O)[C@H](CCC(N)=O)NC(=O)[C@@H](N)C(C)C)C(=O)N1CCC[C@H]1C(=O)N[C@@H](Cc1c[nH]cn1)C(=O)N[C@@H](Cc1ccccc1)C(=O)N2
Question: Which IC50 [2] does the source give for B29 here?
Answer: 0.076 µM

B30: IGE186 (peptide)
peptide: VQCPHFCYEL[Ava]ELCPDVCYV-NH2
modifications: disulfide 7-14, 3-18
Question: For B30, which IC50 [2] is on record?
Answer: 0.18 µM

B31: IGE187 (peptide)
peptide: VQCPHFCYE[Ava]ELCPDVCYV-NH2
modifications: disulfide (positions not given here); not fully specified (bridges); printed as VQCPHFCYEavaELCPDVCYV-nh2
Question: With B31 as the binder, how does the IC50 [2] read?
Answer: 0.09 µM

B32: IGE188 (peptide)
peptide: VQCPHFCYELDYEADRLCPDVCYV-NH2
modifications: disulfide (positions not given here); also: two disulfides, pairing not settled
Question: With B32 as the binder, how does the IC50 [2] read?
Answer: 0.98 µM

B33: IGE189 (peptide)
peptide: VQCPHFCYELDYEAGDERLCPDVCYV-NH2
modifications: disulfide (positions not given here); also: two disulfides, pairing not settled
Question: B33 was tested. Which IC50 [2] did it give?
Answer: 0.15 µM

B34: IGE199 (peptide)
peptide: VQCPDFCY[Ava]LCPDVCYV-NH2
modifications: disulfide (positions not given here); not fully specified (bridges); printed as VQCPDFCYavaLCPDVCYV-nh2
Question: B34 was tested. Which IC50 [2] did it give?
Answer: 6.67 µM

B35: IGE198 (peptide)
peptide: VQCPHFCY[Ava]LCPDVCYV-NH2
modifications: disulfide (positions not given here); not fully specified (bridges); printed as VQCPHFCYavaLCPDVCYV-nh2
Question: For B35, which IC50 [2] is on record?
Answer: 7.8 µM

B36: IGE200 (peptide)
peptide: VQCPKFCY[Ava]LCPDVCYV-NH2
modifications: disulfide (positions not given here); not fully specified (bridges); printed as VQCPKFCYavaLCPDVCYV-nh2
Question: Which IC50 [2] does the source give for B36 here?
Answer: 11.7 µM

B37: IGE201 (peptide)
peptide: VQCPDFCY[Ava]LCPDQCYV-NH2
modifications: disulfide (positions not given here); not fully specified (bridges); printed as VQCPDFCYavaLCPDQCYV-nh2
Question: Which IC50 [2] does the source give for B37 here?
Answer: 14.6 µM

B38: IGE202 (peptide)
peptide: VQCPDFCY[Ava]CPDVCYV-NH2
modifications: disulfide (positions not given here); not fully specified (bridges); printed as VQCPDFCYavaCPDVCYV-nh2
Question: For B38, which IC50 [2] is on record?
Answer: 132 µM

B39: IGE203 (peptide)
peptide: VQCPKFCYE[Ava]CPDVCYV-NH2
modifications: disulfide (positions not given here); not fully specified (bridges); printed as VQCPKFCYEavaCPDVCYV-nh2; also: dimer
Question: For B39, which IC50 [2] is on record?
Answer: 12.9 µM
